Earlier results on two substances are cited in PMC8465902.

Usually Kd stands for the constant that tells how readily two partners part at equilibrium.

For one data set, the target named is IscU (Escherichia coli) (UniProt P0ACD4).
The target in another data set is ISCU (Homo sapiens) (UniProt Q9H1K1).
Chain of UniProt Q9H1K1 (Q9H1K1 35-167): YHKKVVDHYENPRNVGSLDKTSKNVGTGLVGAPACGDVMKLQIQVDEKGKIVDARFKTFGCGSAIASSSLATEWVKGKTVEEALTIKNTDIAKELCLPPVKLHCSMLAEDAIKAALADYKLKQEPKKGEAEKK

Chain of UniProt P0ACD4 (P0ACD4 whole entry): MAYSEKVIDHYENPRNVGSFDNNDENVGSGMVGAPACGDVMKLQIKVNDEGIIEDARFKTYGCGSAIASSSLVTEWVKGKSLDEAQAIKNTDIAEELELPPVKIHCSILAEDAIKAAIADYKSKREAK

As for IscS (from UniProt P0A6B7), the Kd in the data set with IscU (Escherichia coli) is 2 µM.
As to NFU1 CTD (from UniProt Q9UMS0), the dissociation constant (Kd) in the data set with ISCU (Homo sapiens) is 1.1 µM.
